Reference: article PMC4414297, “An epitope tag alters phosphoglycerate dehydrogenase structure and impairs ability to support cell proliferation” (Cancer & Metabolism, 2015)

Target: the molecule itself
Assay: negative-stain electron microscopy; 12 ng/ul His-PHGDH or 15 ng/ul untagged PHGDH with 0.5 mM NADH, 2% uranyl acetate; reference-free alignment, class averages, particle areas compared

B1: recombinant untagged PHGDH (D-3-phosphoglycerate dehydrogenase) (enzyme, human, UniProt O43175 1-533, looked up)
chain: MAFANLRKVLISDSLDPCCRKILQDGGLQVVEKQNLSKEELIAELQDCEGLIVRSATKVTADVINAAEKLQVVGRAGTGVDNVDLEAATRKGILVMNTPNGNSLSAAELTCGMIMCLARQIPQATASMKDGKWERKKFMGTELNGKTLGILGLGRIGREVATRMQSFGMKTIGYDPIISPEVSASFGVQQLPLEEIWPLCDFITVHTPLLPSTTGLLNDNTFAQCKKGVRVVNCARGGIVDEGALLRALQSGQCAGAALDVFTEEPPRDRALVDHENVISCPHLGASTKEAQSRCGEEIAVQFVDMVKGKSLTGVVNAQALTSAFSPHTKPWIGLAEALGTLMRAWAGSPKGTIQVITQGTSLKNAGNCLSPAVIVGLLKEASKQADVNLVNAKLLVKEAGLNVTTSHSPAAPGEQGFGECLLAVALAGAPYQAVGLVQGTTPVLQGLNGAVFRPEVPLRRDLPLLLFRTQTSDPAMLPTMIGLLAEAGVRLLSYQTSLVSDGETWHVMGISSLLPSLEAWKQHVTEAFQFHF
notes: D-3-phosphoglycerate dehydrogenase (PHGDH), human, expressed from pET28a PHGDH without a tag; Oligomer size is left open (dimer, trimer, or tetramer); also called rPHGDH; source: E. coli BL21, purified (Cibacron Blue F3GA, MonoQ, Sephacryl S-200)
  binding result: binds
